Reference: the nanobody polyreactivity screen of Harvey et al. (2022)

Experiment: yeast display, Sf9 membrane polyspecificity reagent, FACS + sequencing; frameworks hold sequencing errors
Summary of the method: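 Galactose induction of a Saccharomyces cerevisiae BJ5465 synthetic nanobody display library ran 36–48 hours. The cells were then stained for 1 hour at 4 °C with 10% biotinylated, detergent-solubilized Sf9 membrane reagent, pulled down on streptavidin microbeads and FACS-sorted into low and high (top ~1%) gates on expression and reagent-binding fluorescence. Labels for polyreactivity follow the gate of origin.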

Sequence | polyreactivity (PSR sort gate)
QVQLVESGGGLVQAGGSLRLSCAASGSTSDINAMGWYRQAPGKERELVAVITDSSNTDYADSVKGRFTISRDNAKNTVYLQMNSLKPEDTADDYCAADRDEPDPYDYWGQGTQVTVSS | low polyreactivity
QVQLVESGGGLVQAGGSLRLSCAASGSTSDPYGMGWYRQAPGKERELVAAISSNGDSTYYADSVKGRFTLSRDNAKNTVYLQMNSLKPEDTAVYYCAARILYSYHLYDYWGQGTQVTVSS | high polyreactivity
QVQLVESGGGLVQAGGSLRLSCAASGSTSGTNAMGWYRQAPGKERELVATISRRGGSTYYADSVKGRFTISRDNAKNTVYLQMNSLKQDYTAVYYCAARTYGYFLYDYWGQGTQVTVSS | high polyreactivity
QVQLVESGGGLVQAGGSLRLSCAASGSTSKYYAMGWYRQAPGKERELVAAITWSDVSTYYADSVKGRFTISRDNAKNTVYLQMNSLKPEDTAVYYCNAGYDYWGQGTQVTVSS | low polyreactivity
QVQLVESGGGLVQAGGSLRLSCAASGSTSLKNAMGWYRQAPGKERELVAAINSVGDTYYADSVKGRFTISRDNAKNTVYLQMNSLKPEDTAVYYCAKRVVRYGKRMGYWGQGTQVTVSS | high polyreactivity
QVQLVESGGGLVQAGGSLRLSCAASGSTSLYNMGWYRQAPGKERELVAAIDSGSTNYADSVKGRFTISRDNAKNTVYLQMNSLKPEDTAVYYCAADGTNIGVYDRASYRDDYWGQGTQVTVSS | low polyreactivity
QVQLVESGGGLVQAGGSLRLSCAASGSTSNIYGMGWYRQAPGKERELVAGISRRGSSTYYADSVKGRFTISRDNAKNSVYLHMNSLKPEDTAVYYCNTRSGGYKHRYDYWGQGTQVTVSS | high polyreactivity
QVQLVESGGGLVQAGGSLRLSCAASGSTSPINAMGWYRQAPGKERELVAVISSSGGLTYYADSVKGRFTISRDNAKNTVYLQMNSLKPEDTAVYYCAKRFSRRQPDYDYGGQGTQVTVSS | high polyreactivity
QVQLVESGGGLVQAGGSLRLSCAASGSTSQSNAMGWYRQAPGKERELVAAISWSGTSTYYADSVKGRFTISRDNAKNTVYLQMNSLNPEDSAVYYCAADYIFDYDYWGQGTQVTVSS | low polyreactivity
QVQLVESGGGLVQAGGSLRLSCAASGSTSQYNAMGWYRQAPGKERELVAAISWSGTSTYYADSVKGRFTISRDNAKNTVYLQMNSLKPEDTAVYYCAADYIFDYDYWGQGTQVTVSS | low polyreactivity
QVQLVESGGGLVQAGGSLRLSCAASGSTSRHNTMGWYRQPPGKERELVAAISGGGTTYYADSVKGRFTISRDNAKNTVYLQMNSLKPEDTAVYYCAAAFWGDYASSYRSGLDYWGQGTQVTVSS | low polyreactivity
QVQLVESGGGLVQAGGSLRLSCAASGSTSRIYAMGWYRQAPGKERELVAAITRSGGSTYYADSVKGRFTISRDNAKNTVYLQMNSLKPEDTAVYYCAADYRSHSRYRYDKVDYWGQGTQVTVSS | high polyreactivity
QVQLVESGGGLVQAGGSLRLSCAASGSTSRYNVMGWSRQPPGKERELVAAISSRGVSTYYADSVKGRFTISRDNAKNTVYLQMNSLKPEDTAVYYCAALYGGPSHYGYWGQGTQVTVSS | high polyreactivity
QVQLVESGGGLVQAGGSLRLSCAASGSTSRYYDMGWYRQAPGKERELVATITISGITNYADSLKGRFTISRDNAKNTVYLQMNSLKPEDTAVYYCATVGPWPGEYDYWGQGTQVTVSS | low polyreactivity
QVQLVESGGGLVQAGGSLRLSCAASGSTSSNNAMGWYRQAPGKERELVADISTNGDSTSYADSVKGRFTISRDNAKNTVYLQMNSLKPEDTAVYYCNKDFVYPDDDGLFDYWGQGTQVTVSS | low polyreactivity
QVQLVESGGGLVQAGGSLRLSCAASGSTSTLYAMGWYRQAPGKERELVAAISKSGGRTYYADSVKGRFTISRDNAKNTVYLQMNSLKPEDTAVYYCAALAVYPRRFDYWGQGTQVTVSS | high polyreactivity
QVQLVESGGGLVQAGGSLRLSCAASGSTSVTNAMGWYRQAPGKEREFVATINYSGTSTYYADSVKGRFTISRDNAKNTVYLLMNSLKPEDTAVYYCNKTFVRGVHGVYLPITSYDYWAQGTQVTVSS | low polyreactivity
QVQLVESGGGLVQAGGSLRLSCAASGSTSYDNSMGWNRKAPGKERELVAAITSDGGSTYYADSVKGRFTISRDKAKNTLYLQMNSLKPEDTAVYYCSADVVHQEWVYVYGGRDDYWGQGTQVTVSS | low polyreactivity
QVQLVESGGGLVQAGGSLRLSCAASGSTSYNAMGWYRQAPGKERELVAAISDGGGSTYYADSVKGRFTISRDNAKNTVYLQMNSLKPEDTAVYYCAADTITGDGYWGQGTQVTVSA | low polyreactivity
QVQLVESGGGLVQAGGSLRLSCAASGSTSYRYAMGWYRQAPGKERELVAGITRSGGSTYYADSVKGRFTISRDNAKNTVYLQMNSLKPEDTAVYYCAAYYSRQYVGYGYWGQGTQVTVSS | high polyreactivity
QVQLVESGGGLVQAGGSLRLSCAASGSTSYVYAMGWYRQAPGKERELVAAISNTGNTNYADSVKGRFTISRDNAKNTVYLQMNSLKPEDTAVYYCNADRRGENDWHERDYWGQGTQVTVSS | low polyreactivity
QVQLVESGGGLVQAGGSLRLSCAASGSTVAYYAMGWYRQAPGKERELVAAITIDGRTSYADSVKGRFTISRDNAKNTVYLQMNSLKREDTAVYYCARGYFPYGYPWRWGYDRFDYWGQGTQVTVSS | low polyreactivity

Sequence | polyreactivity (PSR sort gate)
QVQLVESGGGLVQAGGSLRLSCAASGSTVRGYAKGWYRQAPGKERELGAAITWSGGTTYYADSVKGRFTISRDNAKTTVYLQMNSLKPEDTAVYYCAAQNWDSDPYDYWGQATQVTVSS | low polyreactivity
QVQLVESGGGLVQAGGSLRLSCAASGSTVSDNAMGWYRQAPGKERELVAAINWGGSNTYYADSVKGRFTISRDNAKNTVYLQMNSLKPEDTAVYYFNADIPRRTNRHYLYDYWGQGTQVTVSS | low polyreactivity
QVQLVESGGGLVQAGGSLRLSCAASGSTVSSNAMGWFRLAPGQERELVAAIDRGGSTYYADSVKGRFTISRDNAKNTVYLQMNSRKPEDTAVYYCNADYYHLNSGMYYWGQGTQVTVSS | low polyreactivity
QVQLVESGGGLVQAGGSLRLSCAASGSTVVRYGMGSYRQAPGKERELVAVISRSGGSTYYADSVKARFTISRDNAKNTVFLQMNSLKPEDTAVYYCAITRYGNPNSGGVGYWGQGTQVTVSS | high polyreactivity
QVQLVESGGGLVQAGGSLRLSCAASGSTYANAMGWYRQAPGKERELVAAITDNGGRTYYADSVKGRFTISRDNEKNNVYLQMNSLKPEDTAVYYCAARSSVWGQVTQVTVSS | low polyreactivity
QVQLVESGGGLVQAGGSLRLSCAASGSTYDDNAMGWYRQAPRKERELVAGISTNGGSTSYADSVKGRFTISRDNAKNTVYLQMNSLYPEDTAVYYCATGLYVQFDYWGQGTQVTVSS | low polyreactivity
QVQLVESGGGLVQAGGSLRLSCAASGSTYGYAMGWYRQAPGKERELVAAISSSGGRTYYADSVKGRFTISRDNAKNTVYLQMNSLKPEDTAVYYCAAGGFSQHGHGYWGQGTQVTVSS | high polyreactivity
QVQLVESGGGLVQAGGSLRLSCAASGSTYHQYTMGWYRQAPRKERELVSTINNGGITNYADSLKGRFTISRDNAKKTVYLQLISQNPEDTAVYYCAADYSYYGRYGRYDYWGQGTQVTVSS | low polyreactivity
QVQLVESGGGLVQAGGSLRLSCAASGSTYIVYAMGWYRQAPGKERELVAAIRGRGGSTYYADSVKGRFTISRDNAKNTVYLQMNSLKPEVTAVYYCAARGISPLEMYYWGQGTQVTVSS | high polyreactivity
QVQLVESGGGLVQAGGSLRLSCAASGSTYRPYAMGWYRQAPVKERELVAAISWSGGRTYYADSVKGRFTISRDNAKNNVYLPMNSLKPEDTAVYYCNRAGRQPKNTYDYWGQGTQVTVSS | high polyreactivity
QVQLVESGGGLVQAGGSLRLSCAASGSTYSYYTMGWYIQAPGKERELVATISRRGASTYYADSVKGRFTISRDNAKNTVYLQMNSLKPEDTAVYYCAKSYYYGRSATRPEYDYWGQGTQVTVSS | high polyreactivity
QVQLVESGGGLVQAGGSLRLSCAASGSTYTGYTMGWYRQAPGKERELVAAITYRGGSTYYADSVKGRITISRDNAKNTVYLQMNSLKREDTEVYYCAARSFFIMYYWGQGTQVTVSS | low polyreactivity
QVQLVESGGGLVQAGGSLRLSCAASGSTYTHNTMGWYRQAPGKERELVAAISKSGGRTYYADSVKGRFTISRDHAKNTVYLQMNSLKPEVTAVYYCAARVTGVGDYYWGQGTQVTGSS | high polyreactivity
QVQLVESGGGLVQAGGSLRLSCAASGSTYVQYAMGWYRKAPGKERELVPVISYSGGSTYYADSVKGRFTISRDNAKNTVYLQMNSLKPEDTAVYYCAAVYGGGHRKMDYWGQGTQVTVSS | low polyreactivity
QVQLVESGGGLVQAGGSLRLSCAASGSTYYYAMGWSRQAPGKERELVAAISSSSGSTYYADSVKGRFTISRDNAKNTVYLQMNSLKPEDTAVYYCAAEGYKGWVYEYDYWGQGTQVTVSS | low polyreactivity
QVQLVESGGGLVQAGGSLRLSCAASGSYLRYYAMGWYRQAPGKERELVAAISRSGTKTYYADSVKGRFTISRDNAKKTVYLQMNSLKPEDTAVYYCAARGYYRDYDSWGQGTQVTGSS | high polyreactivity
QVQLVESGGGLVQAGGSLRLSCAASGTFERKVMGWYRPAPGKERELVAAISRSGSSTYYADSVKGRFTISRDNAKNTVYLQMNSLKPEDTAVYYCAARGTKQHFNYWGQGTQVTVSS | high polyreactivity
QVQLVESGGGLVQAGGSLRLSCAASGTFFGYALGWYRQAPGKERELVAAITPGGSTYYADSVKGRFTISRDNAKNTVYLQMNSLKPEDTAVYYCARVYSRWSYRYDYWGQGTQVTVSS | low polyreactivity
QVQLVESGGGLVQAGGSLRLSCAASGTFGYYTMGWYRQAPGHERELVAAITRSGGSTYDADSVKGRFTISRDNAKNTVYLQMNSLKPEDTAVYYCATELHAWSSWNRYRAYYYWGQGTQVTVSS | high polyreactivity
QVQLVESGGGLVQAGGSLRLSCAASGTFHWYAMGWYIQAPGKEMELVAAITGSGGNTYYADSVKGRFTISRDNAKNTVYLQMNSLKPEDTAVYYCAARIYTWSVEYTGYGYWGQGTQVTVSS | high polyreactivity
QVQLVESGGGLVQAGGSLRLSCAASGTFNYYAMGWYRQAPGKERELVAAISNGDSTTYADSVKGRFTISRDNAKNTVYLQMNSLKPEDTAVYYCAAYRYTPRTSRGYYYWGQGTQVTVSS | low polyreactivity
